T1: human Tyro3 (rhTyro3/Dtk-Fc chimera) (Homo sapiens, UniProt Q06418)
T1 construct: Soluble recombinant antigens corresponding to the extracellular domains of members of the human TAM receptor family; purchased R&D Systems 859-DK
T1 sequence (Q06418 41-429 limits assumed): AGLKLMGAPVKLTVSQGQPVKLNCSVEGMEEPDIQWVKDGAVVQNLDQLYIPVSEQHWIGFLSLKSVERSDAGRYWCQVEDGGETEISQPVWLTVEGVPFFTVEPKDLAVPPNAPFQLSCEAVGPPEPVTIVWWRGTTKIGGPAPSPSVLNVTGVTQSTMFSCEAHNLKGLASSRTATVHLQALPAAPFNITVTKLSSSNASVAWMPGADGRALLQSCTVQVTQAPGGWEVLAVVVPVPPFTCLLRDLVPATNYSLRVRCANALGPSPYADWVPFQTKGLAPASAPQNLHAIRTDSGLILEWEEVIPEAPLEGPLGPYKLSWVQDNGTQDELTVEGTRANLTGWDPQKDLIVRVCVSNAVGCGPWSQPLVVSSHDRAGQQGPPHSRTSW

B1: c10C9: chimeric (mouse variable/human constant) IgG1 counterpart of antibody 10C9 (antibody)
heavy: QVQLQQPGPELVKPGASVKISCKTSDYNFTRYYIHWVKQRPGQGLEWIGWIYPGTGDSKYNEKFKGRATLTADTSSSTAYMQLSSQTSEDSAVYFCARNGNYWYFDVWGAGTAVTVSS
light: DIVMTQAAPSGPVTPGESVSISCRSSKSLLHSNGNTYLYWFLQRPGQSPQLLIYRMSNLASGVPDRFSGSGSGTAFTLRISRVEAEDVGIYYCMQHREYPFTFGGGTKLEIK
modifications: left off: a dimerising Fc or GST
notes: chimeric (mouse variable/human constant) IgG1 counterpart of antibody 10C9
B2: mouse Gas6: recombinant mouse (rm) Axl-ligand Gas6 (R&D Systems), used as a control (protein)
chain: DQCTPNPCDKKGTHICQDLMGNFFCVCTDGWGGRLCDKDVNECVQKNGGCSQVCHNKPGSFQCACHSGFSLASDGQTCQDIDECTDSDTCGDARCKNLPGSYSCLCDEGYTYSSKEKTCQDVDECQQDRCEQTCVNSPGSYTCHCDGRGGLKLSPDMDTCEDILPCVPFSMAKSVKSLYLGRMFSGTPVIRLRFKRLQPTRLLAEFDFRTFDPEGVLFFAGGRSDSTWIVLGLRAGRLELQLRYNGVGRITSSGPTINHGMWQTISVEELERNLVIKVNKDAVMKIAVAGELFQLERGLYHLNLTVGGIPFKESELVQPINPRLDGCMRSWNWLNGEDSAIQETVKANTKMQCFSVTERGSFFPGNGFATYRLNYTRTSLDVGTETTWEVKVVARIRPATDTGVLLALVGDDDVVPISVALVDYHSTKKLKKQLVVLAVEDVALALMEIKVCDSQEHTVTVSLREGEATLEVDGTKGQSEVSTAQLQERLDTLKTHLQGSVHTYVGGLPEVSVISAPVTAFYRGCMTLEVNGKILDLDTASYKHSDITSHSCPPVEHAT

What was measured:
[1] = target: T2, human Axl (rhAxl-Fc chimera) (Homo sapiens, UniProt P30530); assay: Biacore binding analysis on immobilized human Axl; settings: 10 μg/mL, 25° C.
T2 construct: Soluble recombinant antigens corresponding to the extracellular domains of members of the human TAM receptor family; purchased R&D Systems 154-AL
Procedure: (§1) All binding experiments were performed using Biacore 3000 instrument (GE Healthcare) at 25° C. Soluble recombinant antigens corresponding to the extracellular domains of members of the human TAM receptor family, Axl (rhAxl-Fc chimera; R&D Systems, Cat. no. 154-AL), Mer (rhMer-Fc chimera; R&D Systems, Cat. no. 891-MR) and Tyro3 (rhTyro3/Dtk-Fc chimera; R&D Systems, Cat. no. 859-DK) were immobilized on the surface of CM5 sensor chip using amine coupling at the surface density of 393.0, 303.6 and 364.0 resonance units (RU), respectively. The Biacore run was performed in an automatic mode using Binding analysis wizard. Samples containing either MAb 10C9 or MAb 10G5 at concentration 10 μg/mL in HBS-EP buffer (GE Healthcare) were injected over the surfaces with immobilized antigens at flow rate of 30 μL/min for 3 min (association) followed by 5 min dissociation.
(§2) The binding experiments were performed using Biacore 3000 instrument (GE Healthcare) at 25° C. The soluble recombinant antigens corresponding to human Axl (rhAxl-Fc chimera; R&D Systems, Cat. no. 154-AL), mouse Axl (rmAxl-Fc chimera; R&D Systems, R&D Systems; Cat. no. 854-AX) and human Tyro3 (rhTyro3/Dtk-Fc chimera; R&D Systems, Cat. no. 859-DK) were immobilized on the surface of CM5 sensor chip using amine coupling at the surface density of 1,308.0, 2,115.9 and 1,429.0 RU, respectively. The Biacore runs were performed in an automatic mode using Binding analysis wizard.
(§3) The sample containing either MAb 10C9, MAb 10G5 or recombinant mouse (rm) Axl-ligand Gas6 (R&D Systems, Cat. no. 986-GS/CF) at concentration 10 μg/mL in HBS-EP buffer (GE Healthcare) was injected over the surfaces with immobilized antigens at flow rate of 30 μL/min for 3 min (association) followed by 5 min dissociation.
The sequence of Axl receptor from cynomolgus monkey (Macaca fascicularis; SEQ ID NO.43) was retrieved from WO2009062690A1. Based on the sequence, recombinant extracellular domain of cyno-Axl was generated by transient expression in CHO cells as a fusion protein with human Fc. The recombinant cyno-Axl-Fc was purified to homogeneity using Protein A-Sepharose (GE Healthcare). The binding experiments were performed using Biacore 3000 instrument (GE Healthcare) at 25° C. The soluble recombinant antigens corresponding to human Axl (rhAxl-Fc chimera; R&D Systems, Cat. no. 154-AL) and cyno-Axl were immobilized on the surface of CM5 sensor chip using amine coupling at the surface density of 775 and 880 RU, respectively. The Biacore runs were performed in an automatic mode using Binding analysis wizard.
The sample containing either MAb 10C9, MAb 10G5 or human Axl-specific MAb 5F11 (control) at concentration 10 μg/mL in HBS-EP buffer (GE Healthcare) was injected over the surfaces with immobilized antigens at flow rate of 30 μL/min for 3 min (association) followed by 5 min dissociation.
In addition, the Axl-binding properties of the chimeric antibodies c10C9 and c10G5 were tested using Biacore 3000 instrument (GE Healthcare) and a sensor chip CM5 coated with human Axl (rhAxl-Fc chimera; R&D Systems, Cat. no. 154-AL) at the surface density of 1,308.0 RU. The Biacore runs were performed in an automatic mode using Binding analysis wizard. The samples comprising either the chimeric antibodies c10C9 and c10G5 or their murine counterparts at concentration 10 μg/mL in HBS-EP buffer (GE Healthcare) were injected over the surfaces with immobilized antigens at flow rate of 30 μL/min for 3 min (association) followed by 5 min dissociation.

[2] = target: T3, rhAxl-Fc chimera (recombinant human Axl) (Homo sapiens, UniProt P30530); assay: Biacore surface plasmon resonance kinetic affinity determination on immobilized rhAxl-Fc; assay type: binding; settings: chimeric antibodies, rhAxl immobilized on sensor chip, 25° C., 1:1 Langmuir binding model
T3 construct: Soluble recombinant antigens corresponding to the extracellular domains of members of the human TAM receptor family; purchased R&D Systems 154-AL
Procedure: (§4) Kinetic analysis of MAbs 10C9 and 10G5 interacting with rhAxl immobilized on the surface of the Biacore sensor chip. Overlay plots of sensograms for different antibody concentrations (1.3-666.7 nM for 10C9 and 0.3-166.7 nM for 10G5) are shown. The precise kinetic analysis was performed using BIA evaluation software and curve fitting according to 1:1 Langmuir binding model.
as §4, with “chimeric antibodies c10C9” for “MAbs 10C9”, “c10G5” for “10G5”, “c10C9” for “10C9”, “c10G5)” for “10G5)”
(§5) Affinity determination of anti-Axl antibodies 10C9 and 10G5 was performed at 25° C. by surface plasmon resonance measurements using Biacore 3000 instrument (GE Healthcare). As a solid antigen-coated surface, a sensor chip CM5 with immobilized rhAxl-Fc chimera (R&D Systems, Cat. no. 154-AL) at density 190 RU was used.
(§6) For the kinetics measurements, different concentrations of anti-Axl antibodies (from 0.3 to 666.7 nM) in HBS-EP buffer (Biacore, Cat. no. BR-1001-88) were injected at flow rate of 30 μL/min with 3 min injection time followed by 5 min dissociation (buffer alone). After each cycle, the surface was regenerated by 30 sec injection of a regeneration solution (10 mM HCl, 1 M NaCl) at flow rate 50 μL/min.
The kinetic association (on-rate, kon) and dissociation (off-rate, koff) rates were calculated using BIAevaluation software and 1:1 Langmuir binding model. The equilibrium dissociation constant (KD) was calculated as the koff/kon ratio. The half-life (t1/2) of the formed antibody-antigen complexes was calculated as the ln 2/koff ratio.
as §5, with “of the chimeric” for “of”, “c10C9” for “10C9”, “c10G5” for “10G5”
as §6, with “333.3” for “666.7”

[3] = tested on: Axl-positive breast cancer cell line MDA-MB-231; assay: Flow cytometry binding to Axl-positive MDA-MB-231 cells; assay type: cell-based, human; settings: different antibody concentrations, MFI
Procedure: Different concentrations of mouse and chimeric antibodies were tested in flow cytometry for binding to triple-negative breast cancer cell line MDA-MB-231. The bound mouse and chimeric antibodies were detected with APC-conjugated donkey F(ab′)2 fragments specific for either mouse IgG (H+L), 1:500 dilution, or human IgG (H+L), 1:300 dilution, respectively (both from Jackson ImmunoResearch). The cell staining was measured using Accuri C6 flow cytometer (BD Biosciences). MFI, geometric mean fluorescence intensity.
The purified chimeric antibodies (>95% purity) were analysed for binding to Axl-positive breast cancer cell line MDA-MB-231 in flow cytometry. For comparison, the parental mouse MAbs 10C9 and 10G5 were used. For flow cytometry, the adherent cells in culture were washed with PBS, detached by treatment with trypsin (0.25%) for 1 min and hitting culture dish for full detachment. Trypsin was quenched by adding into the tissue flask the complete medium followed by washing the cells with PBS. During the washing steps, the cells were collected by centrifugation at 200 g for 5 min. The antibody was diluted for total concentration in PBS containing 0.02% bovine serum albumin (BSA). Cell staining was performed using 200 μL of cell suspension comprising 10^5 cells for 20 min at room temperature. The cell-bound antibodies were detected with APC-conjugated donkey anti-human or anti-mouse, respectively, IgG (H+L) F(ab′)2 fragments (Jackson ImmunoResearch). After two washing steps with PBS/0.02% BSA, the cells were resuspended in 200 μL and kept on ice before analysis on Accuri C6 flow cytometer (BD Biosciences).

[4] = target: T1, human Tyro3 (rhTyro3/Dtk-Fc chimera); assay: Biacore binding analysis on immobilized human Tyro3; settings: 10 μg/mL, 25° C.
Procedure: as §1, §2, §3

[5] = target: T4, mouse Axl (rmAxl-Fc chimera) (Mus musculus, UniProt Q00993); assay: Biacore binding analysis on immobilized mouse Axl; settings: 10 μg/mL, 25° C.
T4 construct: The soluble recombinant antigens corresponding to human Axl (rhAxl-Fc chimera; R&D Systems, Cat. no; 154-AL), mouse Axl (rmAxl-Fc chimera; purchased R&D Systems 854-AX
Procedure: as §2, §3

T4 sequence (Q00993 19-445 limits assumed, change not shown): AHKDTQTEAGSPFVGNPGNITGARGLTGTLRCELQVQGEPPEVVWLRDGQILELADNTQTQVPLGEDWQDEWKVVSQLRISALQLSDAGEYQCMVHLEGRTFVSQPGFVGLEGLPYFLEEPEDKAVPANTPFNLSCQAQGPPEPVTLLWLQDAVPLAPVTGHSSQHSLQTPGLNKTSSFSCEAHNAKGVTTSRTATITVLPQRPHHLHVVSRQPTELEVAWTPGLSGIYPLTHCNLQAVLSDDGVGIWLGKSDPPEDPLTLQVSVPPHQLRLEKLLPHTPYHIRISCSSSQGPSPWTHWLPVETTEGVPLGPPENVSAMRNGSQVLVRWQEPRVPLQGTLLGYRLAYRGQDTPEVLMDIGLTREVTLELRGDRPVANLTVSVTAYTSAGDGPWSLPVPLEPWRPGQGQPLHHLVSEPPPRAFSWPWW

Molecule | binding to human Axl [1] | Off-rate (koff; s^−1) [2] | On-rate (kon; M^−1s^−1) [2] | binding to MDA-MB-231 cells in flow cytometry [3] | binding to human Axl ([1]; listed as murine Gas 6) | binding to human Tyro3 [4] | binding to human Tyro3 ([4]; listed as murine Gas 6) | binding to mouse Axl [5] | binding to mouse Axl ([5]; listed as murine Gas 6)
B1 | bind immobilized Axl with profiles very similar to the binding profiles of the corresponding mouse antibodies | 0.000219 s⁻¹ | 2.16e+06 M⁻¹ s⁻¹ | Dose-dependent binding |  |  |  |  | 
B2 | strong binding |  |  |  | binds strongly | somewhat weaker binding | more weakly | strong binding | binds strongly

Source: patent US10208121B2, “Anti-Axl antagonistic antibodies” (BERGEN TEKNOLOGIOVERFORING AS, priority 2014, dated 2019)
